Results: the RNAGym collection of RNA variant scans (doi:10.1073/pnas.2313332121)

B1: TPR t1 (parent)
chain: GACCAAUCUGCCCUCAGAGCUCGAGAACAUCUUCGGAUGCAGAGGAGGCAGGCUUCGGUGGCGCGAUAGCGCCAACGUCCUCAACCUCCAAUGCAUCCCACCACAUGAUGAUGCCUGAAGAGCCUUGGUUUUUUG

Variants of: B1
Test: polymerase ribozyme fitness, log enrichment relative to wild type (log ratio); higher = more active; in vitro selection for triplet polymerase activity
How it was run: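 PCR was used to build mutant libraries for each subunit of a heterodimeric triplet polymerase ribozyme, which were then transcribed. A single in vitro selection round, in triplicate, used a frozen incubation at −7 °C and recovered extended constructs by gel excision, streptavidin beads and RT-PCR. Fitness is the logarithm of genotype enrichment relative to wild-type enrichment, averaged over replicates with inverse-variance weights. The logarithm is base 2, and after Illumina sequencing only genotypes with ≥10 input reads and ≥1 read per output were kept.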

Row | Variant | polymerase ribozyme fitness (log ratio)
1 | G63C U81C A90U | -3.06
2 | U21C G48U U112C A118U | 1.11
3 | U78G A111U | -3.77
4 | C13U C56A | -0.36
5 | C3A A75G A111G A118G U129C | -1.7
6 | A18U G120U | -1.46
7 | C12U C15A A43C C72U A108U C123G | -6.32
8 | G45A G71C | -1.76
9 | A18G G19A A43C C56U G110A | -2.58
10 | G44A C53A | 0.047
11 | U9G G69U | 0.642
12 | C20A G122A C123G | -0.681
13 | G51U G120U | -3.69
14 | C94U A111G | 0.127
15 | G10U C40G U96G | -4.29
16 | A50G U130C | 0.163
17 | A16U G110A U132C | -2.1
18 | G39U C53G | 0.711
19 | C3U C89U | -0.863
20 | C8G G47A C97A G120U | -2.93
21 | C49U C114A | -2.34
22 | A43G G58A C85U U112C | -1.68
23 | G25A C123A | -6.12
24 | C72G G120C | 0.587

Row | Variant | polymerase ribozyme fitness (log ratio)
25 | C12U C15A | -0.528
26 | U55A C124G | 1.88
27 | C86G C115U | -2.67
28 | G77C C89U G110C G135A | -4.53
29 | C53G C76G A100U | -0.651
30 | C11U C13U C20G G107A G117U G120U | -3.09
31 | C15A G42U C79U C115G C123A | -5.36
32 | A18C G69C | -4.31
33 | C40A C56U A119U G122A | -1.84
34 | A6G A46C G48U G52U A95C | -5.42
35 | G44C A46U G58A G117A U130G | -3.81
36 | C12A G45U G58C C98U C101A | -3.82
37 | G44U C56U | -0.616
38 | C56G U59C | -1.57
39 | U33G G71A G117U | -8.01
40 | C8G G57A A84U G120U | 0.672
41 | C3G G47U G93A | -4.99
42 | C11G A37C G61A | -0.00618
43 | G45A G60A | -1.47
44 | C22G G44U | -4.12
45 | A37U G60U G113U | -3.06
46 | G110U U133C | 0.02
47 | C13G G61A C82A | -2.32
48 | U38A A46U | -2.42

Row | Variant | polymerase ribozyme fitness (log ratio)
49 | A66U C97U G120U C123U | -0.305
50 | G127U | -0.639
51 | C13A A84U G93U G117U | -6.66
52 | U32C C49G G52C U96C | -1.52
53 | C20U A75G | -0.924
54 | G63A G93C G113U | -5.1
55 | A43C U87A G110A | -5.45
56 | C56G G61A U78G C88U U112A | -0.105
57 | A6U G52U | -1.52
58 | C22U A100C | -4.93
59 | C20G A29G C88U U106A | -5.14
60 | G58C A111G G120A | -1.36
61 | C13G C115A | -1.77
62 | C13G A26G | -3.54
63 | U59G C114A | -1.42
64 | U7A G71A | -0.425
65 | C11G A41U C56A C72U U92G | -1.47
66 | G10A G42U G110A | -4
67 | G10U C20A A50C C72U C114U | -4.68
68 | A5U U54G C79A G110C | -6.31
69 | U9C C40A G42C C73A C101A G122A U130A | -1.67
70 | A5C G63U | -1.6
71 | G48C G63A G113A U126C | -3.69
72 | A5C G17A G127U | -4.89

Row | Variant | polymerase ribozyme fitness (log ratio)
73 | G61C C99U A111C | -5.26
74 | G39A C62U A83U U87G | -0.927
75 | C4U G113U C124U | -4.72
76 | A43U C49G U54A | -2.2
77 | C8U A16U G36C G52U C97A | -2.9
78 | C3G C8A G113C G127C | -2.92
79 | C79G A84U | -2.3
80 | C72G U130A | -0.458
81 | C15A G42U C85U G120C | -1.73
82 | C53G C56G C73A A84C | -2.01
83 | C12U C13G A37U U54G C80A | -4.65
84 | U38G G69C C86U C115A | -3.28
85 | C8U C56G | -0.121
86 | C3U C22U | -3.6
87 | U38G C104A | -1.93
88 | C15U G60A G128A | -2.6
89 | G44C U92C C124A | 0.556
90 | C49A G63U C123A | -0.941
91 | G42A C64U | -2.45
92 | G19U G63C U92A | -5.54
93 | C70G A95U C114A | -6.28
94 | C13G G57C C72U G113A | -2.96
95 | C70G U112G U125C | -3.92
96 | A2C C12A C104U | -1.93

Row | Variant | polymerase ribozyme fitness (log ratio)
97 | C80A G120U | -2.35
98 | A5U C73G C94G | -2.07
99 | A5G A50U G63A G117A | -6.03
100 | G10U A50U G63A | -3.1
101 | G48A A95G U116G | -1.38
102 | G42A A83C U112A | -1.42
103 | G35U U130C | -5.09
104 | A27C C72G U81C | -4.5
105 | G47A U54C U59A | -0.546
106 | C40G C56A C79G C101U G110A | -6.02
107 | C3A U7G G10A C49G C104U G110C C124U | -4.49
108 | C3A C11G | -1.08
109 | C62G C88G A91U U112A | -5.1
110 | C20A U32A G35C G71U C115A | -5.14
111 | A24G U59G | -1.69
112 | C34A | -2.52
113 | G52A U92G | -2.95
114 | G19U G93U | -4.25
115 | A27U G71C | -4.45
116 | A26U C49A G60A G110A | -4.81
117 | U38G G51C | -6.44
118 | U109A U112A | -4.47
119 | C49G C53A C94U U116G | -2.47
120 | A83C G93A A111C G113U | -4.96

Row | Variant | polymerase ribozyme fitness (log ratio)
121 | U109A G117U | -5.72
122 | C62G G120A | -0.673
123 | C8G C76U C82G G93A U116C | -2.26
124 | C11U A83G | -1.21
125 | C70U C102A G127A | -3.84
126 | A2U C8A A100U | -1.86
127 | A5U G57A G63U C89G U112C U126A | -3.35
128 | C89A A100U | -2.67
129 | A2U C8U G45A A95G G120A | -0.217
130 | U7C U131A | 0.00611
131 | U32A C88U | -3.8
132 | A83C C104A C115U | -4.27
133 | A18U C123U | -1.12
134 | A2G U78A C79U | 0.0458
135 | C20G C53G G57C A91G | -5.64
136 | A18G C102G G110U | -5.75
137 | A37C C73A A118U U125G | -0.0605
138 | C49A G127U | -1.02
139 | C8A U38A A46C C72U | -1.72
140 | G39U A43C C49A | -3.34
141 | G71C C88U A90C C115G | -4.94
142 | G10U G19C A37U C72A | -1.54
143 | G48A G69U C98G U125A U131C | -3.58
144 | G69A U109A | -5.09

Row | Variant | polymerase ribozyme fitness (log ratio)
145 | G48A C62A G69U | -5.25
146 | C3A A41C C80U C123A | -1.77
147 | A2U A5G G60C | -4
148 | U7A G39U G69A | -3.24
149 | C34U G47C A66C G71A G110C U129C | -6.98
150 | U7C A91G C123U U126A | 0.505
151 | G10U C12G C89G U96A G110U U112A G117C | -5.26
152 | U21A G42U C98U C104U C114G C124A | -5.22
153 | C22G C31U G51C U81A G93A C123U | -6.15
154 | C53A G60A C85G | -1.1
155 | G10A C72U | -0.532
156 | G17C A29G | -4.75
157 | A50C G60C U81G C86U G120C | -1.06
158 | G19A G48U C49U G69U U78C G93U | -3.08
159 | U112A U133A | 1.53
160 | C22G A26C C31G G45U G60U | -8.09
161 | C49A A50G C88A | -1.58
162 | C40A G42U C56A | -2.35
163 | A43G C53A U78C C88U | -1.22
164 | G60A C114G U132G | -4.75
165 | U116C A121G U129C | -3.73
166 | C28G C53U C56G G77A C88U | -1.92
167 | G77C A83C | -0.826
